Reference: the nanobody polyreactivity screen of Harvey et al. (2022)

Test: yeast display, Sf9 membrane polyspecificity reagent, FACS + sequencing; frameworks hold sequencing errors
Summary of the method: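 Galactose-induced (36–48 hours) yeast carrying a synthetic nanobody display library were exposed to 10% biotinylated, detergent-solubilized Sf9 membrane reagent at 4 °C for 1 hour. FACS followed streptavidin microbead enrichment, using low and high (top ~1%) gates for expression (anti-HA) and reagent binding (streptavidin). Colony PCR, MiSeq 2 × 250 sequencing and CDR-length filtering followed. Labels for polyreactivity reflect the gate of origin.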

| Sequence | polyreactivity (PSR sort gate) |
| --- | --- |
| QVQLVESGGGLVQAGGSLRLSCAASGRTYPYAMGLYRQAPGKEREFVAAITSSGGSTYYADSVKGRFTISRDNAKNTVYLQMNSLKPEDTAVYYCAAEYYFLEYDYWGQGTQVTVSS | low polyreactivity |
| QVQLVESGGGLVQAGGSLRLSCSASGFIFGTNTMGWYRQAPGKEWELVAAITSVGSTNYADSVKGRFTISRDNAKNTVYLQMNSLKPEDTAVYYCPATLYYQYGGDYWGQGTQVTVSS | low polyreactivity |
| QVQLVESGGGLVQAGGRLRLSCAASGLIFDDYAMGWYRQAPGKERALVAAIDWGGGSTYYADSVKGRFTISRDNAKNTVYLQMNSLTPEHTAVYYCAADSYFSYRYNYWGQGTQVTVSS | low polyreactivity |
| QVQLVESGGCLVQAGGSLRLSCAASGRIFGYYARGWYRQSAGKERELVAAITRNGGSTYYADSVKGRFTISRDNAKNTVYIQMISLKPVDTAVYYCYATKGGGRGYWCQGTQVTVSS | high polyreactivity |
| QVQLVESGGGLVQAGGSLRLSCPASGSTQHYYVKAWYRQAQGKERELVAAITWSGVSTYYADSVKGRFTISRDNAKNTVYLQMNSLKPEDTAVYYCAKRIFTSARLNYWGKGTQVTVSS | high polyreactivity |
| QGQRVESGGGLVQAGGSLRLTCAPSGRTFTGYAMGWYRQATGKARELVAGINWSTGSTYYADSVKGRFTISRDNAKNTVYLQMNSLKPEDTAVYYCAAGYYYYGNGRIVQYEYWGQGTQVTVSS | high polyreactivity |
| QVQLVESGGGLVQAGGSLRLSCAASGRIFRINAMGWYRQAPGKERELVASISRRGGNTYYADSVKGRFTISRDNAKNTVYLQMNSLKPEDTAVYYCAADTNLERTFDYWGQGTQVTVSS | low polyreactivity |
| QVPLVESGGGLVQAGGSLRLSCAPSGSTYYFYTMGWYIQAPGKERELVAAIRDSGSSTYYADSVKGRFTISRDNAKNTVYLQMNSLKPEDTAVYYCATGVDTYSLTVEHDSWGQGTQVTVSS | low polyreactivity |
| QVQLVESGGGLVQAGGSLRLSSAASGSRNAMGWSRQAPGKEREFVAAITWNGGSTYYADSVKGRFTISRDNAKNTVYLQMNSLKPEDTAVYYCNKREVFIYGTTYDYWGQGTQVTVSS | low polyreactivity |
| QVQRVESGGGLVQAGGSLRLSCAASGFTFDRYAMGWYRQAPGKERELVAAISRSGGSTHYADSVKGRFTISRDNAKNTVYLQMNSLKPEDTAVYYCAKVYAPITALYFPTDRGDYCGQGTQVTVSS | high polyreactivity |
| QLQLVESGGGLVQAGASLRLSCADSRRIFDYNVMGRYIQAPGKEREVVADINGSGGGTNYEDSVKGRFTISRDNAKNTVYLQMNILKPEDTAVYYCNADSYEYHVPYYDYRYDYWGQGTQVTVSS | low polyreactivity |
| QVQLVESGGGLVQAGGSLRLSCAASGFTYRRYAMGWYRQAPGKERELVAAITWSGGSTYYADSVKGRITISRDNAKNTVYLQMNSLKPEDTAVYYCNKAYSPLYFSYNYWGQGTQVTVSS | high polyreactivity |
| QVQLVESGGGLVQAGGSLRLSSAASGRIFWAYLMGRYRQAPGKERELVATIRWRGGSTYYADSVKGRFTISRDNAKNTFYLQMIRLKLEDTAVYYCNADRYSRISPTRYDYWGQGTQVTVSS | high polyreactivity |
| QVQLVESGGGLVQAGGSLRLSWAASGFIFVSNAMGWYRQAPGKERELVAAITSGDNTKYADSVKGRFTISRDNAKNTVYLQMNSLKPEDTAVYYCAVTNRYQGAGYYWGQGTQVTVSS | low polyreactivity |
| QVHLVETGGGLVQEGGSLRLSCAATGSNFGQNAMGWYRQAPGKERELVAAITRRGVATYYADSVKGRFTISRDNAKNTVYLQLISLKPEDTAVYYCAKRYHPNSPYDYWGQGTQVTVSS | low polyreactivity |
| QVQLVESGGGLVQSGVSLRLSCAASGSIFDPYAMGWYRPAPGKERELVAAITSGGSTYYADSVKGRFTISRDNAKNTVYLQMNSLKPEDTAVYYCAKDFDIYYSKYDYWGQGTQVTVSS | low polyreactivity |
| QVQLVESVGGLVQAGVSLRLSCAASGITFYGYAMGWYRQAPGKERELVATSTSGGSTYYADSVKGRFTISRDNAKNTVYLQMNSLKPVDTAVYYCAASRWYRRTRYGYWGQGTQLTVSS | high polyreactivity |
| QVQLVESGGGLVQAGGSLRLSCSASGSIIVSYTMGWYRQAPGKERELVAAISGGGASTYYADSVKGRFTISRDNAKNTVYLQMNSLKPEDTAVYYCNADGYYDMDYCGQGTQVTVSS | low polyreactivity |
| QVQLVESGGGLVQAGGSLRLSCAASGRIFARNAMGWYRQAPGKERELVATIRVGGGSTYYADSVKGRFTISRDNAKNTVYLQMNSLKPEDTAVYSCAVRQLYSYPGDRRGYYWGQGTQVTVSS | low polyreactivity |
| QVQLVESGGGLVQAGGILRLSCAASGITFVRNAMGWYRQAPGKDREFVAAINSIVGRTYYADSVKGRFTISRDNAKNTVYLQMNSLKPEDTAVYDCAADSNVRYGMDYWGLGTQVTVSS | low polyreactivity |
| QVQLVESGGGLVQAGGSLRLSCAASGRIFRVYAMGWYRQAPGKERELVAAISGRGGSTTYADSVKGRFTISRDNAKNTVYLLMNSLKPEDTAVYYCAAGYRVDYWGQGTQVTVSS | low polyreactivity |
| QVQLVESGGGLVQAGGSLRLSCAASGITFAVYAMGWYRQAPGKERELVAAITRGGGSTYYADSVKGRFSISRDNAKNTVYLQMNSLKPEHTAVYYCNADSIPEGNSRYSHFDYWGQGTQVTVSS | low polyreactivity |

| Sequence | polyreactivity (PSR sort gate) |
| --- | --- |
| QDQLVESGGGLVQAGGSLRLSCAASGSTIRVKAMGWYRLAPGKERELVAGISKSGTSTYYADSVKGRFTISRDNAKNTVYLQMNSLKPEDTAAYYCATHLGRRTSGSRFGYWGQGTQVTVSS | high polyreactivity |
| QVQLVESGGRLVQAGGSLRLSCAASGSTFTYNAMGWYRQAPGKESELVASISSGTTTYYADSVKGRFTISRDNAKNTVYVQMNSLKPEDTAVYYCAFDSWSRVQGWLAHNYDYWGQGTQVTVSS | low polyreactivity |
| QVQLVESVGGLVQAGGSLRLSCAASGSTFTYNDLGWYRQAPGKERELVARITFSSGRTYYADSVKGRFTISRDNAKNTVYLQMNSLTPEDTAVYDCARQWYWPPGYYIGQGYEYWGQGTQVTVSS | low polyreactivity |
| QVQLVESGGGLVQAGGSLRLSCAASGFTGVNAMGWYRQAPGKERELVARISNSGGSTYYADSVKGRFTISRDNAKNTVYLQMNSLKPEDTAVYYCNADSYYWGQGTQVTVSS | high polyreactivity |
| QVQLVESGGCLVQAGGSLRLSCAASGRIFGSYAMGWYRHPPGKERELVAAISGSGGRTYYADSVKGRFTISRDNAKNTVYLQMNSLKPEDTAVYYCAADSQSFGYGYWGQGTQVTVSS | high polyreactivity |
| QVQLVESGGGLVQAGGSLRLSCAASGGTLRGNAMGWYRQAPGKERELVAAISGSAGRTYYADSVKGRFTISRDNAKNTVYLQMTSLKPVDTAVYYCAASRRVVKMDYWGQGTQVTVSS | high polyreactivity |
| QVQLVESGGGVVQAGGSLRLSCAASGSIFQSYAMGWYRQAPGKERELVAAISYSGDGPFYADSVKGRFTISRDNAKKTVYLQMNSLKPEDTAVYYCAASSTGYGGSTYYYWGQGTQVTVSS | low polyreactivity |
| QVQLVESGGGLVQAGGSLRLSCAASGSIFRGNAMGWYRQAPGKERELVAAISKSGGSTYYADSVKGRFTISRDHAKNTVYLQMNSLKPEDTAVYYCAARTTYLYGMYYWGQGTQVTVSS | low polyreactivity |
| QVQLVESGGGLVQAGGSLRLSCAASGSIFVLNAMGWYRQAPGQERELVAAITNVGSTYYADSVKGRFTISRDNAKNTVYLQMNSLKPEDTAVYYCAAVLPFKYDYWGQGTQVTVSS | low polyreactivity |
| QVQLVESGGGLVQAGGSLRLSCAASGSIFVDNAMGWYRQAPGTERELVAAINWSGGSTYYADSVKGRFTISRDNAKNTVYLQMNSLKPEDTAVYYCIAARPGQTWDEQSWYDYWGQGTQVTVSS | low polyreactivity |
| QVQLQESGDGLVQAGGSLRLSSAASGTIFSDYGMGGYRQAPGKERELLAGISDGCNTNYTDSVKGRFTISRDNAHRVSADELPETGVYRGVLLRGCERWLLFYVYWGQGTQVTVSS | high polyreactivity |
| QVQLVESGGGLVQAGGSLRLSCAASGITFDYYAMGWYRQAPGKERELVAAISYSGGSTYYADSVKGRFTISRDNAKNTVYVQMNSLKPEDTAVYYCAAETFTISSDYYYWGQGTQVTVSS | low polyreactivity |
| QVQLVESGGGLVQAGGSLRLSCAASGRIFKQYAMGWYRQAPGKEREFVAAISSRGTRTYYADSVKGRFTISRDNAKNTVYLQMISLKPEDTAVYYCNAVQAQAAYEYWGQGTQVTVSS | high polyreactivity |
| QDQLVESGGGLVQARGSLRLSCAASGYIFPFYAMGWYRQAPGKESELVASISSSSGRTNYADSVKGRFTISRDNAMNTVYLQMNSLKPEDTAVYYCSAAYLRYVSTQYHYDYWGQGTQVTVSS | low polyreactivity |
| QVQLVESGGGLVQAGGSLRLSCAASGSIFDVNAMGWYRQATGKERELVAAISDSGGSTYYADSVKGRFTISRDNAKNTVYLQMNSLKPEDTAVYYSNADWSWYNYYDFDYWGHGTQVTVSS | low polyreactivity |
| QVQLVESGGGLVQAGGSLRLSCAASGRIFGAYAMGWYRQAPGKERELVAAITSRGGNTYYADSVKGRFTISRDNAKNTVYFQMNSLKPEDTAVYYWAARHDKRRQYYVGQSAFDYWGQGTQVTVSS | low polyreactivity |
| QVQLVESGGGLVQAGGSLRLSCAASGSTFHYYAMGWYRQAPGKERELVAAIRTSGGSTYYADSVKGRFTISRDNAKNTVYLQMNSLKPEDTAVYYCNRVLGYPYGVDYWGQGTQVTVSS | high polyreactivity |
| QVQLVESGGGLVQAGGSLRLTSAASVSTFYNYAMVWYRQAPGKERELVASMTWNGGSTYYADSVKGRFTISRDNAKNTVDLQMTSLKPEDTAGSYCAAEYRDQYPTYPYYRPGYDYWGQGTQVTVSS | low polyreactivity |
| QVQLVESGGGLVQAGGSLRLSCAASGFTLGWYAMGWYRQAPGKERELVAAISRSGGSTYYADSVKGRFTISRDNAKNTVYLQMNSLKPEDTAVYSCAAEVNYAGWAVWSYYWGQGTQVTVSS | high polyreactivity |
| QVQLVESGGGLVQAGGSLRLSCAASGYIFYDNAMGWYRQAPGKERELVAAISASGGDTYYADSVKGRFTISRDNAKNTVYLQMNSLKPEDTAVYYCAADLITYAMEYWGQGTEVTVSS | low polyreactivity |
| QVQLVESGGGLVQAGGSLRLSCAASGSIFAYYAMGWYRQAPGKERELVAGIRISGGRTYYADSVKGRFTISRDNAKNTVYLQMNSLKPEDTAVYYCNARWRGFRTGAGDYWGQGTQVTVSS | high polyreactivity |
